Laboratory results as given in the supplement of paper PMC9112550, “Optimization of the antimicrobial peptide Bac7 by deep mutational scanning” (BMC Biology, 2022).

Test system: Escherichia coli TOP10
Assay: shrunken log2 fold change of peptide-encoding DNA abundance (4.5 h post-induction vs induction); higher = less antimicrobial activity (less host growth inhibition)
Conditions: time post-induction: 4.5 h; library: site-saturation at positions 5, 18, 19, 20
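Note: peptides expressed intracellularly from a pBAD plasmid library in pooled LB shake-flask culture, induced with 0.3% L-arabinose, DNA abundance read by NGS, three biological replicates, DESeq2 with apeglm shrinkage.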

| Sequence | shrunken log2 fold change |
| --- | --- |
| RRIRDRPPRLPRPRPRPMWDPRP | 0.00712 |
| RRIRLRPPRLPRPRPRPGWQPRP | 0.175 |
| RRIRCRPPRLPRPRPRPDFAPRP | 0.115 |
| RRIRMRPPRLPRPRPRPLVGPRP | 0.73 |
| RRIRMRPPRLPRPRPRPTMNPRP | 0.0381 |
| RRIRFRPPRLPRPRPRPKYPPRP | -0.31 |
| RRIRYRPPRLPRPRPRPNPGPRP | -0.000104 |
| RRIRQRPPRLPRPRPRPAVKPRP | -0.00195 |
| RRIRDRPPRLPRPRPRPEAGPRP | 0.67 |
| RRIRERPPRLPRPRPRPSNRPRP | -0.209 |
| RRIRQRPPRLPRPRPRPAWRPRP | 0.497 |
| RRIRYRPPRLPRPRPRPPTNPRP | 0.0849 |
| RRIRYRPPRLPRPRPRPGQPPRP | 0.0516 |
| RRIRFRPPRLPRPRPRPGCRPRP | 0.00327 |
| RRIRKRPPRLPRPRPRPNADPRP | 0.0182 |
| RRIRNRPPRLPRPRPRPQSKPRP | -0.301 |
| RRIRTRPPRLPRPRPRPRQWPRP | -0.054 |
| RRIRNRPPRLPRPRPRPAVKPRP | -0.229 |
| RRIRSRPPRLPRPRPRPWLHPRP | -0.254 |
| RRIRQRPPRLPRPRPRPYIVPRP | 0.04 |
| RRIRVRPPRLPRPRPRPSVYPRP | -0.25 |
| RRIRMRPPRLPRPRPRPEMSPRP | -0.00133 |
| RRIRFRPPRLPRPRPRPNGAPRP | -0.105 |
| RRIRPRPPRLPRPRPRPRMKPRP | -0.285 |
| RRIRIRPPRLPRPRPRPNDLPRP | -0.16 |

| Sequence | shrunken log2 fold change |
| --- | --- |
| RRIRVRPPRLPRPRPRPCIAPRP | -0.298 |
| RRIRWRPPRLPRPRPRPPSMPRP | 0.405 |
| RRIRSRPPRLPRPRPRPSKHPRP | -0.461 |
| RRIRSRPPRLPRPRPRPYTAPRP | -0.752 |
| RRIRHRPPRLPRPRPRPYCKPRP | -1.02 |
| RRIRERPPRLPRPRPRPFLQPRP | -0.172 |
| RRIRYRPPRLPRPRPRPPNGPRP | 3.11 |
| RRIRYRPPRLPRPRPRPLGSPRP | -0.651 |
| RRIRERPPRLPRPRPRPAHWPRP | 0.339 |
| RRIRKRPPRLPRPRPRPKFQPRP | 0.343 |
| RRIRMRPPRLPRPRPRPVEEPRP | 0.292 |
| RRIRQRPPRLPRPRPRPGPVPRP | -0.0186 |
| RRIRLRPPRLPRPRPRPIYRPRP | -0.0597 |
| RRIRERPPRLPRPRPRPNFGPRP | 0.0437 |
| RRIRSRPPRLPRPRPRPRLKPRP | -0.0978 |
| RRIRHRPPRLPRPRPRPNMKPRP | -0.855 |
| RRIRTRPPRLPRPRPRPYLLPRP | -0.654 |
| RRIRCRPPRLPRPRPRPTLFPRP | 0.196 |
| RRIRMRPPRLPRPRPRPCYHPRP | -0.265 |
| RRIRPRPPRLPRPRPRPNYKPRP | -0.537 |
| RRIRERPPRLPRPRPRPTDHPRP | -0.251 |
| RRIRCRPPRLPRPRPRPTEIPRP | -0.146 |
| RRIRFRPPRLPRPRPRPIGEPRP | 0.0336 |
| RRIRYRPPRLPRPRPRPYRWPRP | -0.175 |
| RRIRARPPRLPRPRPRPLGDPRP | 0.281 |

| Sequence | shrunken log2 fold change |
| --- | --- |
| RRIRKRPPRLPRPRPRPWWAPRP | -0.287 |
| RRIRKRPPRLPRPRPRPPCLPRP | 0.123 |
| RRIRNRPPRLPRPRPRPPDRPRP | 0.00517 |
| RRIRWRPPRLPRPRPRPHPEPRP | 0.275 |
| RRIRNRPPRLPRPRPRPWTFPRP | -0.0614 |
| RRIRHRPPRLPRPRPRPMKLPRP | -0.254 |
| RRIRDRPPRLPRPRPRPRLAPRP | 0.686 |
| RRIRHRPPRLPRPRPRPSWTPRP | -0.356 |
| RRIRFRPPRLPRPRPRPDGDPRP | 0.0613 |
| RRIRSRPPRLPRPRPRPEEKPRP | 0.206 |
| RRIRWRPPRLPRPRPRPGTFPRP | -0.0686 |
| RRIRLRPPRLPRPRPRPTISPRP | -0.375 |
| RRIRCRPPRLPRPRPRPQSRPRP | -0.016 |
| RRIRFRPPRLPRPRPRPGPGPRP | 0.676 |
| RRIRLRPPRLPRPRPRPDDNPRP | -0.138 |
| RRIRYRPPRLPRPRPRPTSRPRP | -0.0257 |
| RRIRTRPPRLPRPRPRPPWDPRP | 0.294 |
| RRIRQRPPRLPRPRPRPLILPRP | -0.424 |
| RRIRLRPPRLPRPRPRPRDMPRP | 0.00118 |
| RRIRLRPPRLPRPRPRPDAVPRP | -0.199 |
| RRIRYRPPRLPRPRPRPQKYPRP | -0.969 |
| RRIRARPPRLPRPRPRPTINPRP | -0.00779 |
| RRIRKRPPRLPRPRPRPQRSPRP | 0.392 |
| RRIRDRPPRLPRPRPRPYSRPRP | -0.00164 |
| RRIRLRPPRLPRPRPRPCASPRP | 0.259 |

| Sequence | shrunken log2 fold change |
| --- | --- |
| RRIRPRPPRLPRPRPRPKAPPRP | 0.171 |
| RRIRSRPPRLPRPRPRPNMSPRP | -0.315 |
| RRIRVRPPRLPRPRPRPAHWPRP | 0.313 |
| RRIRERPPRLPRPRPRPWWRPRP | 0.098 |
| RRIRPRPPRLPRPRPRPLMTPRP | -0.0836 |
| RRIRVRPPRLPRPRPRPIYTPRP | -0.279 |
| RRIRIRPPRLPRPRPRPRRSPRP | 0.347 |
| RRIRARPPRLPRPRPRPPFIPRP | -0.103 |
| RRIRDRPPRLPRPRPRPRNDPRP | -0.461 |
| RRIRSRPPRLPRPRPRPNGLPRP | -0.0247 |
| RRIRCRPPRLPRPRPRPERRPRP | 0.0271 |
| RRIRQRPPRLPRPRPRPKQVPRP | 0.0304 |
| RRIRIRPPRLPRPRPRPMPKPRP | -0.0638 |
| RRIRPRPPRLPRPRPRPYYWPRP | -0.0723 |
| RRIRMRPPRLPRPRPRPPIFPRP | 0.00125 |
| RRIRSRPPRLPRPRPRPYRYPRP | -0.262 |
| RRIRDRPPRLPRPRPRPKYFPRP | -0.0236 |
| RRIRNRPPRLPRPRPRPCAPPRP | -0.436 |
| RRIRQRPPRLPRPRPRPEHKPRP | -0.00178 |
| RRIRMRPPRLPRPRPRPQCHPRP | 0.0857 |
| RRIRYRPPRLPRPRPRPKWNPRP | -0.483 |
| RRIRRRPPRLPRPRPRPLAKPRP | 0.571 |
| RRIRKRPPRLPRPRPRPCKQPRP | 0.0173 |
| RRIRLRPPRLPRPRPRPFDRPRP | -0.38 |
| RRIRDRPPRLPRPRPRPYQLPRP | -0.0742 |

| Sequence | shrunken log2 fold change |
| --- | --- |
| RRIRDRPPRLPRPRPRPEAVPRP | 0.0262 |
| RRIRFRPPRLPRPRPRPETCPRP | -0.0911 |
| RRIRNRPPRLPRPRPRPICLPRP | 0.00214 |
| RRIRQRPPRLPRPRPRPRAFPRP | 0.317 |
| RRIRFRPPRLPRPRPRPLMRPRP | 0.278 |
| RRIRYRPPRLPRPRPRPAMDPRP | -0.256 |
| RRIRNRPPRLPRPRPRPEVTPRP | -0.0105 |
| RRIRERPPRLPRPRPRPWMGPRP | 0.299 |
| RRIRCRPPRLPRPRPRPCMFPRP | -0.625 |
| RRIRNRPPRLPRPRPRPYLDPRP | -0.181 |
| RRIRMRPPRLPRPRPRPIVAPRP | 0.156 |
| RRIRKRPPRLPRPRPRPLNWPRP | 0.0951 |
| RRIRQRPPRLPRPRPRPSCSPRP | -0.111 |
| RRIRSRPPRLPRPRPRPDKAPRP | -0.111 |
| RRIRSRPPRLPRPRPRPMFLPRP | -0.595 |
| RRIRPRPPRLPRPRPRPWDEPRP | -0.151 |
| RRIRDRPPRLPRPRPRPLEVPRP | 0.121 |
| RRIRMRPPRLPRPRPRPHIRPRP | -0.0162 |
| RRIRHRPPRLPRPRPRPVFFPRP | -0.0644 |
| RRIRMRPPRLPRPRPRPCKHPRP | 0.0196 |
| RRIRYRPPRLPRPRPRPMTQPRP | -0.0104 |
| RRIRTRPPRLPRPRPRPAWKPRP | 0.0317 |
| RRIRCRPPRLPRPRPRPKKKPRP | -0.0938 |
| RRIRMRPPRLPRPRPRPRVNPRP | 1.08 |
| RRIRSRPPRLPRPRPRPIRHPRP | -0.0283 |
